The source of these data is US5942602.

The target in assay [1] is human full-length EGF receptor (human) (UniProt P00533).
Assay [2] deals with EGFRvIII (human) (UniProt P00533).
Assay [3] shares this target. The source holds these as a separate data set.
Assay [4] concerns the target human full-length EGF receptor (human) (UniProt P00533). This is another data set of the same source.
Assay [5] shares this target. This is another data set of the same source.

Where only a bound is given, the exact number is not on record here.

On to TGFα-ETA (from UniProt P01135), for which the IC50 of cell killing, DH-EGFR-E cells, 40 h in assay [1] came to 0.042 µg/mL. In assay [2], the IC50 of cell killing, DH-EΔ801-P cells, 40 h is 0.7 µg/mL. In assay [3], the IC50 of cell killing, DH-EΔ801-5 cells, 40 h is > 1 µg/mL. Moreover, the IC50 of cell killing, SKBR3 cells, 40 h in assay [4] was 0.09 µg/mL.
Substance scFv(225) came in with a competition of TGFα-ETA (100 ng/ml) cytotoxicity by 10 µg/ml scFv, 40 h; MDA-MB468 cells (also A431 and SKBR3) (% cell killing) in assay [5] of 63.
